The assay concerns the target UNC-119 tagged with the C-terminal fragment of Venus (C. elegans) (UniProt Q10658). In words: split reporter (BiFC, NanoBiT); BiFC in vivo in transgenic C. elegans (AWC neurons); ODR-3 tagged with VN, partner tagged with VC; read-out is the percentage of animals showing Venus fluorescence.

Results on 2 substances are retold here after publication PMC12693566.

Sequence of UniProt Q10658 (Q10658 whole entry, the tested form may be a part): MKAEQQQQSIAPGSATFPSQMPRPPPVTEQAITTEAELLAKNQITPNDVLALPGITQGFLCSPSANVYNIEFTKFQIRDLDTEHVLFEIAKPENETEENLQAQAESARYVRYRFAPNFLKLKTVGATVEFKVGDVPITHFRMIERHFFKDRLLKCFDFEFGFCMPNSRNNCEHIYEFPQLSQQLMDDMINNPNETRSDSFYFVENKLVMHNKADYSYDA

As to “ODR-3^A328P tagged with the N-terminal Venus fragment (from UniProt Q18434 1-356) (natural protein)”, the percent of animals with BiFC came out at 51%.

Take “ODR-3^WT tagged with the N-terminal Venus fragment (from UniProt Q18434 1-356) (natural protein)”: the percent of animals with BiFC stood at 81%.
